Reference: publication PMC3798605 (2013)

Assays:
TbPIP39 wild type [1] = molecular target: T1, TbPIP39 wild type (Trypanosoma brucei); assay: SPR; 2 mM citrate
TbPIP39 wild type [2] = molecular target: T1, TbPIP39 wild type; assay: SPR; 2 mM citrate, steady state

B1: TbPTP1 (enzyme)
chain: MSTAKSFPMAQLSTRAQYSRMQREFVQLQRQENPRNINFTTSLKNRHKNRYLDILANEETIYPPVLKAVGAQPGRYPYINGNLIDLDLPHTFVACQAPVPQGVPDFLETLSEKKVDLVVMLTKLREGGVLKAERYWPEEEEDSLSFPESGHDAIKVTRDAEASYEVDAELDIVRRPLVIHVPGKPMHRVLQVQYVGWPDHGVPESAASFDELLSVIKNCVTTSPILVHCSAGIGRTGTLIGAYAALLHIERGILTDSTVYSIVAAMKQKRFGMVQRLEQYAVIYMTVLGRLGVDISGLVSTLNLKA
TbPIP39 wild type [1]
  Kd: 42 µM
  koff: 0.05 s⁻¹
TbPIP39 wild type [2]
  Kd: 50.8 µM
